From the supplement of paper PMC7125110 come the findings set out here.

± gives the standard error. For some of these results: Fewer inactive variants are shown than the library holds.

The chains are these.
B1: glmS ribozyme (parent)
chain: AUAAAAGCGCCAGAACUACAGAAAUGUAGUUGACGAGGAGGAGGUUUAUCGAAUUUUCGGCGGAUGCCUCCAAA

Holding throughout (settings): with glucosamine-6-phosphate
Data set [1] covers variants of B1. As to the kind of experiment: kcat; higher = faster cleavage; RNA array. In a few lines: (§1)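 Over ~14 h at 37 °C, tiles were imaged as glucosamine-6-phosphate (40 μM to 10 mM) in HEPES/KCl/Mg(OAc)2 buffer flowed across sequenced MiSeq chips. The chips carried barcoded ribozyme variants transcribed in situ by E. coli RNA polymerase and tracked with a hybridised Cy3 probe. After normalisation to baseline and to non-cleaving reference variants, one- or two-exponential decay fits of per-tile medians gave kobs. kcat and KM followed from weighted Michaelis–Menten fits across concentrations.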

The variants in data set [2] derive from B1. As to the kind of experiment: KM; higher = weaker cofactor use; RNA array. In a few lines: as §1
The variants in data set [3] derive from B1. The experiment in a line: self-cleavage kobs at 2500 uM GlcN6P; higher = faster cleavage; RNA array. In outline: as §1
In data set [4] the parent is B1. The experiment in a line: self-cleavage kobs at 10000 uM GlcN6P; higher = faster cleavage; RNA array. In outline: as §1
Data set [5] covers variants of B1. The experiment in a line: self-cleavage kobs at 160 uM GlcN6P; higher = faster cleavage; RNA array. In a few lines: as §1
Variants of B1 are the subject of data set [6]. As to the kind of experiment: self-cleavage kobs at 640 uM GlcN6P; higher = faster cleavage; RNA array. In a few lines: as §1
Variants of B1 are the subject of data set [7]. The experiment in a line: self-cleavage kobs at 40 uM GlcN6P; higher = faster cleavage; RNA array. In a few lines:
as §1

In the case of A12U U47G U57C, in the data set with glucosamine-6-phosphate [1], the kcat came out at 0.000776 ± 0.00016 s⁻¹. Further, the Michaelis constant (KM) with glucosamine-6-phosphate [2] was 8.65 ± 3.2 mM. The “self-cleavage kobs at 2500 uM GlcN6P” value in the data set with glucosamine-6-phosphate [3] was determined as 0.000172 ± 4.9e-05 s⁻¹. The “self-cleavage kobs at 10000 uM GlcN6P” value in the data set with glucosamine-6-phosphate [4] was found to be 0.000417 ± 6.9e-05 s⁻¹.
A52G C71A: the kcat in the data set with glucosamine-6-phosphate [1] amounted to 0.000593 ± 8.1e-05 s⁻¹. In the data set with glucosamine-6-phosphate [2], the KM is 3.19 ± 0.73 mM. Also, the “self-cleavage kobs at 160 uM GlcN6P” value with glucosamine-6-phosphate [5] is 3.52e-05 ± 1.4e-05 s⁻¹. Moreover, in the data set with glucosamine-6-phosphate [6], the “self-cleavage kobs at 640 uM GlcN6P” value is 9.96e-05 ± 1.3e-05 s⁻¹. For the same variant, the “self-cleavage kobs at 2500 uM GlcN6P” value with glucosamine-6-phosphate [3] worked out at 0.000247 ± 3.1e-05 s⁻¹. For the same variant, in the data set with glucosamine-6-phosphate [4], the “self-cleavage kobs at 10000 uM GlcN6P” value is 0.000466 ± 5.9e-05 s⁻¹.
G60A G63C: the kcat with glucosamine-6-phosphate [1] was under 1e-05 s⁻¹. For the same variant, the “self-cleavage kobs at 160 uM GlcN6P” value with glucosamine-6-phosphate [5] was under 1e-05 s⁻¹. Besides, the “self-cleavage kobs at 2500 uM GlcN6P” value with glucosamine-6-phosphate [3] was under 1e-05 s⁻¹. Also, in the data set with glucosamine-6-phosphate [4], the “self-cleavage kobs at 10000 uM GlcN6P” value is under 1e-05 s⁻¹.
As for G59U G62U C67G, in the data set with glucosamine-6-phosphate [1], the kcat was under 1e-05 s⁻¹. The “self-cleavage kobs at 160 uM GlcN6P” value in the data set with glucosamine-6-phosphate [5] is under 1e-05 s⁻¹.
Regarding A42U A48U A64U C68U, the kcat in the data set with glucosamine-6-phosphate [1] was under 1e-05 s⁻¹. Besides, the Michaelis constant (KM) with glucosamine-6-phosphate [2] amounted to 0.0113 ± 0.0035 mM. Besides, the “self-cleavage kobs at 2500 uM GlcN6P” value with glucosamine-6-phosphate [3] is under 1e-05 s⁻¹. Further, the “self-cleavage kobs at 10000 uM GlcN6P” value with glucosamine-6-phosphate [4] was under 1e-05 s⁻¹.
With U30G A53U, the turnover number (kcat) in the data set with glucosamine-6-phosphate [1] came to 0.00761 ± 0.0027 s⁻¹. Moreover, in the data set with glucosamine-6-phosphate [7], the “self-cleavage kobs at 40 uM GlcN6P” value was 0.000261 ± 3.2e-05 s⁻¹. Also, the “self-cleavage kobs at 160 uM GlcN6P” value with glucosamine-6-phosphate [5] turned out to be 0.000465 ± 0.00011 s⁻¹. Also, the “self-cleavage kobs at 640 uM GlcN6P” value with glucosamine-6-phosphate [6] amounted to 0.0019 ± 0.00032 s⁻¹. For the same variant, the “self-cleavage kobs at 2500 uM GlcN6P” value in the data set with glucosamine-6-phosphate [3] stood at 0.00357 ± 0.0007 s⁻¹. Also, in the data set with glucosamine-6-phosphate [4], the “self-cleavage kobs at 10000 uM GlcN6P” value is 0.00788 ± 0.0011 s⁻¹.
Consider A12C U69C, for which the kcat with glucosamine-6-phosphate [1] was 0.0042 ± 0.0012 s⁻¹. Further, in the data set with glucosamine-6-phosphate [2], the KM was 1.52 ± 0.63 mM. The “self-cleavage kobs at 40 uM GlcN6P” value with glucosamine-6-phosphate [7] was 0.000133 ± 2.3e-05 s⁻¹. Also, in the data set with glucosamine-6-phosphate [5], the “self-cleavage kobs at 160 uM GlcN6P” value is 0.000486 ± 0.00013 s⁻¹. In addition, the “self-cleavage kobs at 640 uM GlcN6P” value with glucosamine-6-phosphate [6] was found to be 0.000885 ± 0.0002 s⁻¹. In addition, the “self-cleavage kobs at 2500 uM GlcN6P” value in the data set with glucosamine-6-phosphate [3] was found to be 0.00295 ± 0.00069 s⁻¹. Further, the “self-cleavage kobs at 10000 uM GlcN6P” value with glucosamine-6-phosphate [4] is 0.00396 ± 0.00074 s⁻¹.
In the case of C58A C67A, the kcat with glucosamine-6-phosphate [1] is 0.000182 ± 3.1e-05 s⁻¹. For the same variant, the KM with glucosamine-6-phosphate [2] is 2.3 ± 1 mM. Also, the “self-cleavage kobs at 640 uM GlcN6P” value in the data set with glucosamine-6-phosphate [6] was found to be 3.37e-05 ± 1.2e-05 s⁻¹. Also, the “self-cleavage kobs at 2500 uM GlcN6P” value with glucosamine-6-phosphate [3] stood at 0.000146 ± 4e-05 s⁻¹. In addition, the “self-cleavage kobs at 10000 uM GlcN6P” value in the data set with glucosamine-6-phosphate [4] was determined as 0.000144 ± 2e-05 s⁻¹.
For A39U A48C, the kcat with glucosamine-6-phosphate [1] turned out to be 0.000221 ± 2.1e-05 s⁻¹. In the data set with glucosamine-6-phosphate [2], the Michaelis-Menten constant (KM) came to 0.836 ± 0.37 mM. Further, the “self-cleavage kobs at 2500 uM GlcN6P” value with glucosamine-6-phosphate [3] came to 0.000181 ± 1.8e-05 s⁻¹. Also, the “self-cleavage kobs at 10000 uM GlcN6P” value with glucosamine-6-phosphate [4] stood at 0.000196 ± 1.6e-05 s⁻¹.
With C10G U47G G60C, the kcat with glucosamine-6-phosphate [1] amounted to 0.000977 ± 0.00037 s⁻¹. Also, in the data set with glucosamine-6-phosphate [5], the “self-cleavage kobs at 160 uM GlcN6P” value was 0.000156 ± 5e-05 s⁻¹. The “self-cleavage kobs at 640 uM GlcN6P” value with glucosamine-6-phosphate [6] is 0.000256 ± 7.5e-05 s⁻¹. Also, the “self-cleavage kobs at 2500 uM GlcN6P” value with glucosamine-6-phosphate [3] came to 0.000552 ± 0.00013 s⁻¹. Moreover, in the data set with glucosamine-6-phosphate [4], the “self-cleavage kobs at 10000 uM GlcN6P” value stood at 0.0011 ± 0.00032 s⁻¹.
Consider A6U U56C, for which the turnover number (kcat) in the data set with glucosamine-6-phosphate [1] turned out to be 3.09e-05 ± 1.4e-06 s⁻¹. For the same variant, in the data set with glucosamine-6-phosphate [2], the KM turned out to be 4.67 ± 0.59 mM. In addition, the “self-cleavage kobs at 160 uM GlcN6P” value with glucosamine-6-phosphate [5] is under 1e-05 s⁻¹. Further, the “self-cleavage kobs at 10000 uM GlcN6P” value with glucosamine-6-phosphate [4] turned out to be 2.11e-05 ± 7.5e-06 s⁻¹.
U45G U46C: in the data set with glucosamine-6-phosphate [1], the kcat turned out to be 0.0148 ± 0.0013 s⁻¹. In addition, the KM with glucosamine-6-phosphate [2] stood at 3.53 ± 0.44 mM. In addition, the “self-cleavage kobs at 40 uM GlcN6P” value with glucosamine-6-phosphate [7] was determined as 0.000173 ± 2.8e-05 s⁻¹. In the data set with glucosamine-6-phosphate [5], the “self-cleavage kobs at 160 uM GlcN6P” value is 0.00068 ± 0.00013 s⁻¹. The “self-cleavage kobs at 640 uM GlcN6P” value with glucosamine-6-phosphate [6] was 0.0019 ± 0.00046 s⁻¹. Moreover, the “self-cleavage kobs at 2500 uM GlcN6P” value in the data set with glucosamine-6-phosphate [3] was found to be 0.00634 ± 0.001 s⁻¹. In the data set with glucosamine-6-phosphate [4], the “self-cleavage kobs at 10000 uM GlcN6P” value was 0.011 ± 0.0013 s⁻¹.
For the variant G37A G66U, the catalytic constant (kcat) in the data set with glucosamine-6-phosphate [1] stood at 0.000462 ± 0.00011 s⁻¹. For the same variant, the KM with glucosamine-6-phosphate [2] turned out to be 3.94 ± 1.5 mM. In the data set with glucosamine-6-phosphate [6], the “self-cleavage kobs at 640 uM GlcN6P” value was determined as 5.56e-05 ± 1.3e-05 s⁻¹. Also, the “self-cleavage kobs at 2500 uM GlcN6P” value in the data set with glucosamine-6-phosphate [3] came to 0.000217 ± 3.4e-05 s⁻¹. Further, the “self-cleavage kobs at 10000 uM GlcN6P” value in the data set with glucosamine-6-phosphate [4] worked out at 0.000301 ± 6.5e-05 s⁻¹.
For the variant C10A C61G, the kcat with glucosamine-6-phosphate [1] is under 1e-05 s⁻¹.
Take U46G C58A: in the data set with glucosamine-6-phosphate [1], the kcat amounted to 0.000164 ± 4e-05 s⁻¹. The “self-cleavage kobs at 40 uM GlcN6P” value in the data set with glucosamine-6-phosphate [7] is under 1e-05 s⁻¹. Moreover, the “self-cleavage kobs at 2500 uM GlcN6P” value with glucosamine-6-phosphate [3] is 3.08e-05 ± 1.2e-05 s⁻¹. In the data set with glucosamine-6-phosphate [4], the “self-cleavage kobs at 10000 uM GlcN6P” value came out at 8.21e-05 ± 1.1e-05 s⁻¹.
With A12C U57C, the kcat in the data set with glucosamine-6-phosphate [1] amounted to 0.000312 ± 5.1e-05 s⁻¹. In addition, in the data set with glucosamine-6-phosphate [2], the KM was determined as 4.85 ± 1.6 mM. Also, in the data set with glucosamine-6-phosphate [6], the “self-cleavage kobs at 640 uM GlcN6P” value turned out to be 4.73e-05 ± 1.2e-05 s⁻¹. Also, the “self-cleavage kobs at 2500 uM GlcN6P” value with glucosamine-6-phosphate [3] was 9.32e-05 ± 1.7e-05 s⁻¹. The “self-cleavage kobs at 10000 uM GlcN6P” value in the data set with glucosamine-6-phosphate [4] came to 0.000214 ± 2.2e-05 s⁻¹.
